Laboratory results: the supplement of paper PMC7125110
± gives the standard error. For some assays here: Variants at the floor of the assay were thinned out.

B1: glmS ribozyme (parent)
chain: AUAAAAGCGCCAGAACUACAGAAAUGUAGUUGACGAGGAGGAGGUUUAUCGAAUUUUCGGCGGAUGCCUCCAAA

Tests used:
Conditions in all cases: with glucosamine-6-phosphate
glucosamine-6-phosphate [1] = variants of: B1; assay: kcat; higher = faster cleavage; RNA array
Summary of the method: (§1)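 kobs was derived by fitting per-tile medians to one- or two-exponential decays after normalising signals to baseline and to non-cleaving reference variants. Those signals came from barcoded ribozyme variants transcribed in situ by E. coli RNA polymerase on sequenced MiSeq chips, followed through a hybridised Cy3 probe at 37 °C and imaged over ~14 h. Glucosamine-6-phosphate (40 μM to 10 mM) in HEPES/KCl/Mg(OAc)2 buffer was flowed in. Weighted Michaelis–Menten fits across concentrations then gave kcat and KM.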

glucosamine-6-phosphate [2] = variants of: B1; assay: KM; higher = weaker cofactor use; RNA array
Summary of the method: as §1

glucosamine-6-phosphate [3] = variants of: B1; assay: self-cleavage kobs at 40 uM GlcN6P; higher = faster cleavage; RNA array
Summary of the method: as §1

glucosamine-6-phosphate [4] = variants of: B1; assay: self-cleavage kobs at 160 uM GlcN6P; higher = faster cleavage; RNA array
Summary of the method: as §1

glucosamine-6-phosphate [5] = variants of: B1; assay: self-cleavage kobs at 640 uM GlcN6P; higher = faster cleavage; RNA array
Summary of the method: as §1

glucosamine-6-phosphate [6] = variants of: B1; assay: self-cleavage kobs at 2500 uM GlcN6P; higher = faster cleavage; RNA array
Summary of the method: as §1

glucosamine-6-phosphate [7] = variants of: B1; assay: self-cleavage kobs at 10000 uM GlcN6P; higher = faster cleavage; RNA array
Summary of the method: as §1

G21U
kcat (glucosamine-6-phosphate [1]): 0.0659 ± 0.016 s⁻¹
KM (glucosamine-6-phosphate [2]): 2090 ± 600 µM
self-cleavage kobs at 40 uM GlcN6P (glucosamine-6-phosphate [3]): 0.00136 ± 8.6e-05 s⁻¹
self-cleavage kobs at 160 uM GlcN6P (glucosamine-6-phosphate [4]): 0.00351 ± 0.00055 s⁻¹
self-cleavage kobs at 640 uM GlcN6P (glucosamine-6-phosphate [5]): 0.0147 ± 0.0015 s⁻¹
self-cleavage kobs at 2500 uM GlcN6P (glucosamine-6-phosphate [6]): 0.0337 ± 0.0063 s⁻¹
self-cleavage kobs at 10000 uM GlcN6P (glucosamine-6-phosphate [7]): 0.059 ± 0.0083 s⁻¹

U46A C68A
kcat (glucosamine-6-phosphate [1]): 1.9e-05 ± 7.6e-06 s⁻¹
self-cleavage kobs at 40 uM GlcN6P (glucosamine-6-phosphate [3]): < 1e-05 s⁻¹

A53U C68G
kcat (glucosamine-6-phosphate [1]): 7.87e-05 ± 9.6e-06 s⁻¹
self-cleavage kobs at 160 uM GlcN6P (glucosamine-6-phosphate [4]): 8.2e-05 ± 1.4e-05 s⁻¹
self-cleavage kobs at 640 uM GlcN6P (glucosamine-6-phosphate [5]): 6.63e-05 ± 1.1e-05 s⁻¹
self-cleavage kobs at 2500 uM GlcN6P (glucosamine-6-phosphate [6]): 7.65e-05 ± 1.4e-05 s⁻¹
self-cleavage kobs at 10000 uM GlcN6P (glucosamine-6-phosphate [7]): 7.67e-05 ± 7.9e-06 s⁻¹

U55G
kcat (glucosamine-6-phosphate [1]): 0.0523 ± 0.0043 s⁻¹
KM (glucosamine-6-phosphate [2]): 2390 ± 240 µM
self-cleavage kobs at 40 uM GlcN6P (glucosamine-6-phosphate [3]): 0.000889 ± 2.1e-05 s⁻¹
self-cleavage kobs at 160 uM GlcN6P (glucosamine-6-phosphate [4]): 0.00312 ± 0.00021 s⁻¹
self-cleavage kobs at 640 uM GlcN6P (glucosamine-6-phosphate [5]): 0.0103 ± 0.00037 s⁻¹
self-cleavage kobs at 2500 uM GlcN6P (glucosamine-6-phosphate [6]): 0.0271 ± 0.0015 s⁻¹
self-cleavage kobs at 10000 uM GlcN6P (glucosamine-6-phosphate [7]): 0.0436 ± 0.0021 s⁻¹

U30C U65A
kcat (glucosamine-6-phosphate [1]): 2.91e-05 ± 1.2e-05 s⁻¹
self-cleavage kobs at 2500 uM GlcN6P (glucosamine-6-phosphate [6]): 3.76e-05 ± 1.2e-05 s⁻¹

U30A G38A
kcat (glucosamine-6-phosphate [1]): < 1e-05 s⁻¹
self-cleavage kobs at 40 uM GlcN6P (glucosamine-6-phosphate [3]): < 1e-05 s⁻¹
self-cleavage kobs at 10000 uM GlcN6P (glucosamine-6-phosphate [7]): < 1e-05 s⁻¹

A6U U65A
kcat (glucosamine-6-phosphate [1]): < 1e-05 s⁻¹

U31C C67A
kcat (glucosamine-6-phosphate [1]): 0.00103 ± 0.00015 s⁻¹
KM (glucosamine-6-phosphate [2]): 1970 ± 540 µM
self-cleavage kobs at 40 uM GlcN6P (glucosamine-6-phosphate [3]): 2.9e-05 ± 6.9e-06 s⁻¹
self-cleavage kobs at 160 uM GlcN6P (glucosamine-6-phosphate [4]): 5.29e-05 ± 2.2e-05 s⁻¹
self-cleavage kobs at 640 uM GlcN6P (glucosamine-6-phosphate [5]): 0.000244 ± 5.6e-05 s⁻¹
self-cleavage kobs at 2500 uM GlcN6P (glucosamine-6-phosphate [6]): 0.000603 ± 0.00011 s⁻¹
self-cleavage kobs at 10000 uM GlcN6P (glucosamine-6-phosphate [7]): 0.000857 ± 0.0001 s⁻¹

C11U U30C
kcat (glucosamine-6-phosphate [1]): 0.000527 ± 0.00014 s⁻¹
KM (glucosamine-6-phosphate [2]): 2780 ± 1100 µM
self-cleavage kobs at 160 uM GlcN6P (glucosamine-6-phosphate [4]): 5.41e-05 ± 2.1e-05 s⁻¹
self-cleavage kobs at 640 uM GlcN6P (glucosamine-6-phosphate [5]): 9.85e-05 ± 1.3e-05 s⁻¹
self-cleavage kobs at 2500 uM GlcN6P (glucosamine-6-phosphate [6]): 0.000213 ± 4.9e-05 s⁻¹
self-cleavage kobs at 10000 uM GlcN6P (glucosamine-6-phosphate [7]): 0.000465 ± 9.9e-05 s⁻¹

A12C U45C
kcat (glucosamine-6-phosphate [1]): 0.00344 ± 0.0011 s⁻¹
KM (glucosamine-6-phosphate [2]): 7280 ± 3000 µM
self-cleavage kobs at 40 uM GlcN6P (glucosamine-6-phosphate [3]): 3e-05 ± 1.2e-05 s⁻¹
self-cleavage kobs at 160 uM GlcN6P (glucosamine-6-phosphate [4]): 5.84e-05 ± 2.1e-05 s⁻¹
self-cleavage kobs at 640 uM GlcN6P (glucosamine-6-phosphate [5]): 0.000289 ± 7.9e-05 s⁻¹
self-cleavage kobs at 2500 uM GlcN6P (glucosamine-6-phosphate [6]): 0.000907 ± 0.00016 s⁻¹
self-cleavage kobs at 10000 uM GlcN6P (glucosamine-6-phosphate [7]): 0.00194 ± 0.00049 s⁻¹

G59U G62U C67G
kcat (glucosamine-6-phosphate [1]): < 1e-05 s⁻¹
self-cleavage kobs at 160 uM GlcN6P (glucosamine-6-phosphate [4]): < 1e-05 s⁻¹

G41U G66U
kcat (glucosamine-6-phosphate [1]): 5.98e-05 ± 1.9e-06 s⁻¹
KM (glucosamine-6-phosphate [2]): 582 ± 89 µM
self-cleavage kobs at 160 uM GlcN6P (glucosamine-6-phosphate [4]): < 1e-05 s⁻¹
self-cleavage kobs at 640 uM GlcN6P (glucosamine-6-phosphate [5]): 3.02e-05 ± 1.5e-05 s⁻¹
self-cleavage kobs at 2500 uM GlcN6P (glucosamine-6-phosphate [6]): 5.12e-05 ± 1.5e-05 s⁻¹
self-cleavage kobs at 10000 uM GlcN6P (glucosamine-6-phosphate [7]): 5.53e-05 ± 1.3e-05 s⁻¹

C11A C67U
kcat (glucosamine-6-phosphate [1]): 4.14e-05 ± 2.5e-06 s⁻¹
self-cleavage kobs at 640 uM GlcN6P (glucosamine-6-phosphate [5]): 3.1e-05 ± 1.4e-05 s⁻¹
self-cleavage kobs at 2500 uM GlcN6P (glucosamine-6-phosphate [6]): 3.53e-05 ± 1e-05 s⁻¹
self-cleavage kobs at 10000 uM GlcN6P (glucosamine-6-phosphate [7]): 4.17e-05 ± 6.9e-06 s⁻¹

G32U A53U
kcat (glucosamine-6-phosphate [1]): 0.000907 ± 0.00012 s⁻¹
KM (glucosamine-6-phosphate [2]): 4580 ± 950 µM
self-cleavage kobs at 160 uM GlcN6P (glucosamine-6-phosphate [4]): 1.91e-05 ± 5.9e-06 s⁻¹
self-cleavage kobs at 640 uM GlcN6P (glucosamine-6-phosphate [5]): 0.000111 ± 6.5e-06 s⁻¹
self-cleavage kobs at 2500 uM GlcN6P (glucosamine-6-phosphate [6]): 0.000361 ± 2.5e-05 s⁻¹
self-cleavage kobs at 10000 uM GlcN6P (glucosamine-6-phosphate [7]): 0.000603 ± 3.5e-05 s⁻¹

A15U U55C
kcat (glucosamine-6-phosphate [1]): 0.00268 ± 0.0003 s⁻¹
KM (glucosamine-6-phosphate [2]): 915 ± 160 µM
self-cleavage kobs at 40 uM GlcN6P (glucosamine-6-phosphate [3]): 0.000117 ± 2.1e-05 s⁻¹
self-cleavage kobs at 160 uM GlcN6P (glucosamine-6-phosphate [4]): 0.00039 ± 6.4e-05 s⁻¹
self-cleavage kobs at 640 uM GlcN6P (glucosamine-6-phosphate [5]): 0.00136 ± 0.00052 s⁻¹
self-cleavage kobs at 2500 uM GlcN6P (glucosamine-6-phosphate [6]): 0.00158 ± 0.00036 s⁻¹
self-cleavage kobs at 10000 uM GlcN6P (glucosamine-6-phosphate [7]): 0.00269 ± 0.00038 s⁻¹

U30C C58G
kcat (glucosamine-6-phosphate [1]): 2e-05 ± 1.6e-06 s⁻¹
self-cleavage kobs at 640 uM GlcN6P (glucosamine-6-phosphate [5]): < 1e-05 s⁻¹
